This note sets out measurements from article doi:10.1101/2022.09.08.507146, “Cytomotive actins and tubulins share a polymerisation switch mechanism conferring robust dynamics” (bioRxiv, 2022).

This data set concerns the molecule itself. The data set can be described thus: cryo-EM structure; BtubA*B single protofilaments, 0.21 mg/mL in HMK100 pH 7.7 with 0.5 mM GMPCPP, 45 s at 20 °C.

B1: Prosthecobacter dejongeii BtubA*B heterodimer (BtubA* R284G, R286D, F287G with BtubB) (complex)
chain 1: MKVNNTIVVSIGQAGNQIAASFWKTVCLEHGIDPLTGQTAPGVAPRGNWSSFFSKLGESSSGSYVPRAIMVDLEPSVIDNVKATSGSLFNPANLISRTEGAGGNFAVGYLGAGREVLPEVMSRLDYEIDKCDNVGGIIVLHAIGGGTGSGFGALLIESLKEKYGEIPVLSCAVLPSPQVSSVVTEPYNTVFALNTLRRSADACLIFDNEALFDLAHRKWNIESPTVDDLNLLITEALAGITASMRFSGFLTVEISLRELLTNLVPQPSLHFLMCAFAPLTPPDGSDGEELGIEEMIKSLFDNGSVFAACSPMEGRFLSTAVLYRGIMEDKPLADAALAAMREKLPLTYWIPTAFKIGYVEQPGISHRKSMVLLANNTEIARVLDRICHNFDKLWQRKAFANWYLNEGMSEEQINVLRASAQELVQSYQVAEESGAKAKVQDSAGDTGMRAAAAGVSDDARGSMSLRDLVDRRR
chain 2: MREILSIHVGQCGNQIADSFWRLALREHGLTEAGTLKEGSNAAANSNMEVFFHKVRDGKYVPRAVLVDLEPGVIARIEGGDMSQLFDESSIVRKIPGAANNWARGYNVEGEKVIDQIMNVIDSAVEKTKGLQGFLMTHSIGGGSGSGLGSLILERLRQAYPKKRIFTFSVVPSPLISDSAVEPYNAILTLQRILDNADGAVLLDNEALFRIAKAKLNRSPNYMDLNNIIALIVSSVTASLRFPGKLNTDLSEFVTNLVPFPGNHFLTASFAPMRGAGQEGQVRTNFPDLARETFAQDNFTAAIDWQQGVYLAASALFRGDVKAKDVDENMATIRKSLNYASYMPASGGLKLGYAETAPEGFASSGLALVNHTGIAAVFERLIAQFDIMFDNHAYTHWYENAGVSRDMMAKARNQIATLAQSYRDAS
notes: BtubA*, as m5; BtubB, as m6; The heterodimer as the unit that polymerises into single protofilaments; also called BtubA*B M-loop mutant; mutant BtubAB; source: E. coli C41(DE3), co-expressed and co-purified (HiTrap Q XL, Sephacryl S300, Mono Q)
Regarding B1, the binding result was “binds”.
